Consider 3 substances from EP4361176A1.

Assay [1] addresses human FcγRIIa R extracellular domain (human) (UniProt P12318). The experiment in a line: SPR; KD for FcγRIIb divided by KD for this FcγR.
In assay [2] the target is human FcγRIIIa V extracellular domain (human) (UniProt P08637). Kind of assay: SPR; KD for FcγRIIb divided by KD for this FcγR. A general note: Surface plasmon resonance follows binding to a sensor surface in real time, without labels.
Assay [3] addresses human FcγRIIa R extracellular domain (human) (UniProt P12318). Kind of assay: SPR; KD of G1d divided by KD of this antibody.
Assay [4] addresses human FcγRIIIa V extracellular domain (human) (UniProt P08637). The experiment in a line: SPR; KD of G1d divided by KD of this antibody.
Assay [5] has as its target human FcγRIIa R extracellular domain (human) (UniProt P12318). The experiment in a line: SPR (Biacore 8K+), captured antibody, 1:1 Langmuir model.
In assay [6] the target is human FcγRIIIa V extracellular domain (human) (UniProt P08637). The assay is described as above.
Assay [7] deals with human FcγRIIb extracellular domain with C-terminal His-tag (human) (UniProt P31994). Kind of assay: SPR (Biacore T200), FcγRIIb 1000 nM, amount bound per unit captured antibody.
Assay [8] shares this target. Kind of assay: SPR; binding amount / that of MDX10D1H-G1m/MDX10D1L-k0MT.

As a reminder, the Kd is a measure of binding affinity in units of concentration. High values mean lower affinity, low ones higher affinity.

Chain of human FcγRIIb extracellular domain with C-terminal His-tag (human) (P31994 43-217): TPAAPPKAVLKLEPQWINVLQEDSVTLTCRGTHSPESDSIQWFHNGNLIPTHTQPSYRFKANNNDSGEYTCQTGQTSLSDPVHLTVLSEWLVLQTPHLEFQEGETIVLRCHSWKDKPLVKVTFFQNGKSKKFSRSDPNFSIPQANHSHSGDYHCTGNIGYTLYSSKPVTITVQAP
Chain of H240-GASDALIE/L73-k0 (antibody) (heavy): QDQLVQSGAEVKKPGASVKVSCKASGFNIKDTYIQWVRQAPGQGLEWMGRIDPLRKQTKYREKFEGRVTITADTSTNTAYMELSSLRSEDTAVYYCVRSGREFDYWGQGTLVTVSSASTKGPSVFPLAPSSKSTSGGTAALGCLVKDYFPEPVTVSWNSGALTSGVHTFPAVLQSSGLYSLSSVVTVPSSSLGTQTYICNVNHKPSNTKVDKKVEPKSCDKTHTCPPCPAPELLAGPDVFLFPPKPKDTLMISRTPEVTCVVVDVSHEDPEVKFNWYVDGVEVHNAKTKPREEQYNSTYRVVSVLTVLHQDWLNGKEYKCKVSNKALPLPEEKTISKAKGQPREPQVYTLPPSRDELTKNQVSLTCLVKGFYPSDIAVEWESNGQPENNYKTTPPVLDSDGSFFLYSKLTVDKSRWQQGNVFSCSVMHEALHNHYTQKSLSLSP
Chain of H240-GASDALIE/L73-k0 (antibody) (light): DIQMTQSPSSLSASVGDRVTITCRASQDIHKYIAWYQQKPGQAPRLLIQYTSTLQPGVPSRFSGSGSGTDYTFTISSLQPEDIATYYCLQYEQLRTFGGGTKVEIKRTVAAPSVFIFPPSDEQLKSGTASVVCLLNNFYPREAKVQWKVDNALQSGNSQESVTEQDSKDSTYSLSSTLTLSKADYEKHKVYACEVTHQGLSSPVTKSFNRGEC

As to H240-GASDALIE/L73-k0 (antibody), the A/I ratio (KD for FcγRIIb divided by KD for each FcyR) is 16.5 in assay [1] and 176 in assay [2]. The Relative value to KD between G1d and hFcgRs was determined as 10.3 in assay [3] and 23.6 in assay [4]. Moreover, the results for the equilibrium dissociation constant (Kd) in assay [5] and in assay [6] were 161 nM and 15.2 nM, respectively.

In turn, MDX10D1H-G1m/MDX10D1L-k0MT (antibody) showed a Binding amount in assay [7] of 0.012.

In assay [7], “MDX10D1H-GASDIE/MDX10D1L-k0MT (antibody)” displayed a Binding amount of 0.072. The same substance had a Relative binding amount in assay [8] of 5.8.
